Measured values: article PMC9613699

Assay: western blot, endogenous PD-L1 in RBMS1-depleted MDA-MB-231, ±IFN-γ
Details: glycan lost; control: untreated

For “PD-L1 (programmed death ligand 1; B7-H1, CD274): tunicamycin”, the “other: dependence of PD-L1 protein level on RBMS1” value was “abolishes”.
